Laboratory results: paper PMC11063902
Like-named read-outs stand apart in the source and are kept apart here.

Experiments:
[1] = target: eIF4G_(721-1104)-Fl (S1041C) (human) (UniProt Q04637); experiment: fluorescence polarisation; eIF4G_(721-1104)-Fl (fluorescein at S1041C) titrated with eIF3 or eIF3-PR∗; carried out as described previously (ref. 7)
[2] = target: eIF4G_(721-1104)-Fl (S1041C) (human) (UniProt Q04637); experiment: as above; remark: listed apart in the source
[3] = system: eIF4G682-1104 (human); experiment: fluorescence anisotropy; details: uncapped; 20 mM Tris acetate pH 7.5, 70 mM KCl, 2 mM free Mg2+ (Mg acetate), 0.1 mM spermidine, 1 mM DTT, 10% glycerol, 0.1 mg/ml BSA; 20 nM RNA; 30 °C for 5 min
[4] = system: eIF4G721-1104 (human); experiment: fluorescence anisotropy; details: text gives 4.60 ± 0.47 uM; uncapped; 20 mM Tris acetate pH 7.5, 70 mM KCl, 2 mM free Mg2+ (Mg acetate), 0.1 mM spermidine, 1 mM DTT, 10% glycerol, 0.1 mg/ml …; 20 nM RNA; 30 °C for 5 min
[5] = target: eIF4A•eIF4G_(711-1104)-Fl (UniProt Q04637); experiment: fluorescence polarisation; 20 nM eIF4G-Fl with 3 uM eIF4A, 40S subunit titrated; Binding Buffer (20 mM Tris acetate pH 7.5, 70 mM KCl, 2 mM free Mg2+, 0.1 mM spermidine, 1 mM DTT, 10% glycerol, 0.1 mg/ml BSA) with 0.5 mM ATP/MgCl2; 10 min ice, 5 min 30 °C, 10 min room temperature
[6] = target: eIF4A•eIF4G_(682-1104)-Fl (UniProt Q04637); experiment: as above
[7] = target: eIF4A•eIF4G_(711-1104)-Fl (UniProt Q04637); experiment: fluorescence polarisation; as a3 with 200 nM eIF3 added (subsaturating, ~50% of eIF4G-Fl bound); 20 nM eIF4G-Fl, 3 uM eIF4A, 40S subunit titrated; 0.5 mM ATP/MgCl2
[8] = target: eIF4A•eIF4G_(682-1104)-Fl (UniProt Q04637); experiment: as above

eIF3 (intact multi-subunit complex) (from UniProt O15371 1-548; Q99613 1-913; O75822 1-258)
Kd [1]: 81 nM
Kd [2]: 124 nM

CAA-42-FL (42-mer RNA-Fl)
Kd [3]: 463 nM
Kd [4]: 4600 nM

eIF3-PR∗ (eIF3 cleaved by HIV-1 PR and purified by size exclusion chromatography) (from UniProt O15371 1-114; Q99613 1-913) (complex)
Kd [1]: 127 nM
Kd [2]: 75 nM

40S ribosomal subunit (complex)
Kd [5]: 563 nM
Kd [6]: 129 nM
KD with 200 nM eIF3 [7]: 248 nM
KD with 200 nM eIF3 [8]: 76 nM
